Experimental data from paper PMC11470758.

Key:
[1] = biological target: T1, MBP-GlcR (MGlcR) (Paracoccus denitrificans) (UniProt A1BAC0); test: EMSA; conditions: EMSA buffer, salt, pH and temperature not given in the material
T1 sequence: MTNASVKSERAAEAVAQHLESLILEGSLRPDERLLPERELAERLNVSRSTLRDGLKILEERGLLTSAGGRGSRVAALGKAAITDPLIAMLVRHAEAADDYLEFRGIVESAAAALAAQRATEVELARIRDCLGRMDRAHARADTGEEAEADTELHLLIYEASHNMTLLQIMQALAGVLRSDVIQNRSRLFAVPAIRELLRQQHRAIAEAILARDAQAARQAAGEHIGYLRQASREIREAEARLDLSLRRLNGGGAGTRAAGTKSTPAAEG

MBP-GlcR (MGlcR) = biological target: T2, MBP-GlcR (MGlcR) (Paracoccus denitrificans, UniProt A1BAC0 1-269); test: EMSA
T2 sequence: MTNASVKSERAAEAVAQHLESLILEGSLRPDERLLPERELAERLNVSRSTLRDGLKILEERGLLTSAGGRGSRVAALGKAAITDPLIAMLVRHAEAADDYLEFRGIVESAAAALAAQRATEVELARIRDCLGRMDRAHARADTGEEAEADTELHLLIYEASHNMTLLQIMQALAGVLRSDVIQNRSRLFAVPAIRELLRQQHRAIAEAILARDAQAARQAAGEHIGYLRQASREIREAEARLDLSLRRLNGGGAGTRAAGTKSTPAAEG

CTTTCTAGATCACGCACGCGCCAGGATGCCCGCATCGGGCCGGGGCATGGCAATACCGGACAAGCTCTCCTCCCTTGGTCGAACGGCAGGCCCGTGTCCTGCCCTGCATTCTTGGTATAATTTTCAGACCACATTAGTCAATCGGTATTTTTCTGGACCGACACGCCCGTCCTGTGCTTACATGGCAGGGATCCGACAACCGCATGAGCGCCCATGACCAACGCATCCGTGAAATCCGAACGCGCCGCCGAGGCCGTGGCCCAGTGAGAATTCATATC (double strand) [pden4399-4400 intergenic sequence]
binding [1]: binds

B1: fragment #3 (dsDNA)
DNA 1: GTCCAGAAAAATACCGATTGACTAATGTGGTCTGAAAATTATACCAAGAATGCAGGGCAG
DNA 2: CTGCCCTGCATTCTTGGTATAATTTTCAGACCACATTAGTCAATCGGTATTTTTCTGGAC
binding result (MBP-GlcR (MGlcR)): binds
